Test results published in the supplement of paper PMC7877785.
± gives the uncertainty stated by the source.

Assay: self-splicing fitness, log relative to wild type (ln ratio); higher = more splicing; Tetrahymena group I intron in knt gene, E. coli kanamycin selection, DiMSum; sequences stand for … in CUCUCU…GGAGGGAAAAGUUAUCAGGCAUGCACCUGGUAGCUAGUCUUUAAACCAAUAGAUUGCAUCGGUUUAAAAGGCAAGACCGUCAAAUUGCGGGAAAGGGGUCAACAGCCGUUCAGUACCAAGUCUCAGGGGAAACUUUGAGAUGGCCUUGCAAAGGGUAUGGUAAUAAGCUGACGGACAUGGUCCUAACCACGCAGCCAAGUCCUAAGUCAACAGAUCUUCUGUUGAUAUGGAUGCAGUUCACAGACUAAAUGUCGGUCGGGGAAGAUGUAUUCUUCUCAUAAGAUAUAGUCGGACCUCUCCUUAAUGGGAGCUAGCGGAUGAAGUGAUGCAACACUGGAGCCGCUGGGAACUAAUUUGUAUGCGAAAGUAUAUUGAUUAGUUUUGGAGUACUCGUGGUCG
Procedure, shortened: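 A randomised library covering all eight P1ex-region intron nucleotides was built with the intron in the knt kanamycin-resistance gene on pET-22b(+) and held in E. coli BL21(DE3). Cells were grown overnight at 37°C or 30°C on LB agar, with or without 25 μg/mL kanamycin, plus 100 μg/mL carbenicillin, 50 μM IPTG and 0.2% rhamnose, and pooled colonies were amplicon-sequenced on an Illumina HiSeq 2500. DiMSum fitness is the error-weighted combination of wild-type-normalised replicate fold changes, kanamycin versus none.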

AUUUAGCAAUAUUACGGUCA
self-splicing fitness (ln) (30 °C): -0.961 ± 0.13
self-splicing fitness (ln) (37 °C): -0.48 ± 0.12

GUUUAGCAAUAUUACGGGAA
self-splicing fitness (ln) (30 °C): -2.96 ± 0.23
self-splicing fitness (ln) (37 °C): -2.04 ± 0.19

AACCAGCAAUAUUACGAUUU
self-splicing fitness (ln) (30 °C): 0.157 ± 0.044
self-splicing fitness (ln) (37 °C): -0.0356 ± 0.058

CGGUAGCAAUAUUACGAGCU
self-splicing fitness (ln) (30 °C): -2.4 ± 0.15
self-splicing fitness (ln) (37 °C): -1.89 ± 0.2

CCAGAGCAAUAUUACGAGGU
self-splicing fitness (ln) (30 °C): -3.71 ± 0.24
self-splicing fitness (ln) (37 °C): -2.77 ± 0.29

GUUUAGCAAUAUUACGACCA
self-splicing fitness (ln) (30 °C): -1.56 ± 0.35
self-splicing fitness (ln) (37 °C): -0.943 ± 0.35

AGUCAGCAAUAUUACGUGCU
self-splicing fitness (ln) (30 °C): -2.18 ± 0.12
self-splicing fitness (ln) (37 °C): -1.43 ± 0.12

UACGAGCAAUAUUACGUAUC
self-splicing fitness (ln) (30 °C): -2.79 ± 0.16
self-splicing fitness (ln) (37 °C): -2.99 ± 0.27

GACGAGCAAUAUUACGCUUA
self-splicing fitness (ln) (30 °C): -2.29 ± 0.15
self-splicing fitness (ln) (37 °C): -1.13 ± 0.14

CAAUAGCAAUAUUACGUCAC
self-splicing fitness (ln) (30 °C): -2.04 ± 0.2
self-splicing fitness (ln) (37 °C): -2.71 ± 0.43

GUGCAGCAAUAUUACGCAGG
self-splicing fitness (ln) (30 °C): -2.59 ± 0.12
self-splicing fitness (ln) (37 °C): -3.12 ± 0.18

AGUAAGCAAUAUUACGAACA
self-splicing fitness (ln) (30 °C): -0.711 ± 0.13
self-splicing fitness (ln) (37 °C): -0.282 ± 0.14

CGGUAGCAAUAUUACGCUGA
self-splicing fitness (ln) (30 °C): -2.23 ± 0.21
self-splicing fitness (ln) (37 °C): -0.951 ± 0.2

CGAAAGCAAUAUUACGUCCC
self-splicing fitness (ln) (30 °C): -0.693 ± 0.14
self-splicing fitness (ln) (37 °C): -0.0504 ± 0.23

ACUCAGCAAUAUUACGUUCU
self-splicing fitness (ln) (30 °C): -0.967 ± 0.079
self-splicing fitness (ln) (37 °C): -0.242 ± 0.074

CGCCAGCAAUAUUACGAACG
self-splicing fitness (ln) (30 °C): -0.982 ± 0.097
self-splicing fitness (ln) (37 °C): 0.0565 ± 0.12

CCAAAGCAAUAUUACGUAUU
self-splicing fitness (ln) (30 °C): -4.14 ± 0.13
self-splicing fitness (ln) (37 °C): -2.71 ± 0.12

GGUAAGCAAUAUUACGACGG
self-splicing fitness (ln) (30 °C): -3.74 ± 0.33
self-splicing fitness (ln) (37 °C): -2.84 ± 0.34

GGAGAGCAAUAUUACGGUGA
self-splicing fitness (ln) (30 °C): -2.27 ± 0.2
self-splicing fitness (ln) (37 °C): -1.46 ± 0.21

AUGGAGCAAUAUUACGUCCU
self-splicing fitness (ln) (30 °C): -0.886 ± 0.24
self-splicing fitness (ln) (37 °C): -1.35 ± 0.29

CACAAGCAAUAUUACGGGAG
self-splicing fitness (ln) (30 °C): -1.55 ± 0.065
self-splicing fitness (ln) (37 °C): -1.46 ± 0.076

CAUUAGCAAUAUUACGUUCU
self-splicing fitness (ln) (30 °C): -2.56 ± 0.15
self-splicing fitness (ln) (37 °C): -2.62 ± 0.16

GCUCAGCAAUAUUACGGAAC
self-splicing fitness (ln) (30 °C): -0.677 ± 0.073
self-splicing fitness (ln) (37 °C): 0.0247 ± 0.11

GUCAAGCAAUAUUACGGAGC
self-splicing fitness (ln) (30 °C): -2.47 ± 0.46

GUCGAGCAAUAUUACGUUGU
self-splicing fitness (ln) (37 °C): -2.78 ± 0.37

UUUAAGCAAUAUUACGGAAG
self-splicing fitness (ln) (30 °C): -2.97 ± 0.26
self-splicing fitness (ln) (37 °C): -1.37 ± 0.3

AGGAAGCAAUAUUACGGAUA
self-splicing fitness (ln) (37 °C): -2.01 ± 0.21

GGCUAGCAAUAUUACGGAAA
self-splicing fitness (ln) (30 °C): -2.79 ± 0.41
self-splicing fitness (ln) (37 °C): -1.92 ± 0.29

UUCCAGCAAUAUUACGUAAC
self-splicing fitness (ln) (30 °C): -2.44 ± 0.25
self-splicing fitness (ln) (37 °C): -2.08 ± 0.38

CACAAGCAAUAUUACGGCCC
self-splicing fitness (ln) (30 °C): -2.49 ± 0.22
self-splicing fitness (ln) (37 °C): -1.82 ± 0.31

AUCCAGCAAUAUUACGCCAC
self-splicing fitness (ln) (30 °C): -2.03 ± 0.18
self-splicing fitness (ln) (37 °C): -2.5 ± 0.2

CUUUAGCAAUAUUACGCAGC
self-splicing fitness (ln) (37 °C): -2.27 ± 0.33

UAACAGCAAUAUUACGUGCU
self-splicing fitness (ln) (30 °C): -3.33 ± 0.16
self-splicing fitness (ln) (37 °C): -2.28 ± 0.16

ACCGAGCAAUAUUACGCAGC
self-splicing fitness (ln) (30 °C): -4.02 ± 0.47
self-splicing fitness (ln) (37 °C): -2.84 ± 0.48

AUUAAGCAAUAUUACGGUAG
self-splicing fitness (ln) (30 °C): -4.09 ± 0.29
self-splicing fitness (ln) (37 °C): -2.57 ± 0.22

CUCCAGCAAUAUUACGUCAA
self-splicing fitness (ln) (30 °C): -3.08 ± 0.19
self-splicing fitness (ln) (37 °C): -3.24 ± 0.23

CGUGAGCAAUAUUACGUUUC
self-splicing fitness (ln) (30 °C): -3.19 ± 0.23
self-splicing fitness (ln) (37 °C): -2.23 ± 0.19

AUGAAGCAAUAUUACGCACC
self-splicing fitness (ln) (30 °C): -0.272 ± 0.097
self-splicing fitness (ln) (37 °C): 0.751 ± 0.18

UGGGAGCAAUAUUACGAGGG
self-splicing fitness (ln) (37 °C): -1.99 ± 0.42
